The source of these data is PMC7104187.

The data set concerns the target T1, SauCas9 (Staphylococcus aureus, UniProt J7RUA5 1-1053).
T1 sequence: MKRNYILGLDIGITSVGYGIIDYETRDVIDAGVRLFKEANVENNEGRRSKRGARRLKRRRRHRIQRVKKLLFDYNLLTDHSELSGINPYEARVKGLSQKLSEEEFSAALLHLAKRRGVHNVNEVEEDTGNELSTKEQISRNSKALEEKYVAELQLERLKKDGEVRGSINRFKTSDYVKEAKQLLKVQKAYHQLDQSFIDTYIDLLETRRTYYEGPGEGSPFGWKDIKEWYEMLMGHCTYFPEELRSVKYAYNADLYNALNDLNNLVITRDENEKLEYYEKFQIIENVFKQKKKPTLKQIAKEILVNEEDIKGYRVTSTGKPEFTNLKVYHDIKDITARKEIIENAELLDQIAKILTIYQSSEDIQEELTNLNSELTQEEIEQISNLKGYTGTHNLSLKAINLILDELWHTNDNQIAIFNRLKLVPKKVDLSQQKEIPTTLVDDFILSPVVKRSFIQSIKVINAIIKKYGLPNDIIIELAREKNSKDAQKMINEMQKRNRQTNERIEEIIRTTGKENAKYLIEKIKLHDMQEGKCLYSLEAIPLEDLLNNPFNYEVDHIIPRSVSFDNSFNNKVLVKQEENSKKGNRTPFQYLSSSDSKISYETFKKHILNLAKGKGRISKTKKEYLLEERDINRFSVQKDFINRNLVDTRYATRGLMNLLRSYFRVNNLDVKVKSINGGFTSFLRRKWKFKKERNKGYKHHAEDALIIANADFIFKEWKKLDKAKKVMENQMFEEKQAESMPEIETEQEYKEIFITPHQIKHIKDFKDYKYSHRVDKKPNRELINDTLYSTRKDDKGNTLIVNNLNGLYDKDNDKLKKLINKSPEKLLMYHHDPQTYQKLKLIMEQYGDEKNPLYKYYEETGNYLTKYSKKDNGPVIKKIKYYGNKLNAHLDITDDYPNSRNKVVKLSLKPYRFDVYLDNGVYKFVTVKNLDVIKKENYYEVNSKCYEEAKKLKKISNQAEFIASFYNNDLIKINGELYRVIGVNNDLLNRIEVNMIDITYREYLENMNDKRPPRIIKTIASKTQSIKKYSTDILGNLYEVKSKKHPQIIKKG
In words: EMSA. A general note: In EMSA bound probe runs differently from free probe, usually more slowly.

B1: EGFP sgRNA + target dsDNA (T) (mixed)
RNA: GCAAGGGCGAGGAGCUGUUCACGUUUUAGUACUCUGGAAACAGAAUCUACUAAAACAAGGCAAAAUGCCGUGUUUAUCUCGUCAACUUGUUGGCGAGAUUUUU
DNA 1: TGGTGAGCAAGGGCGAGGAGCTGTTCACCGGGGT
DNA 2: ACCCCGGTGAACAGCTCCTCGCCCTTGCTCACCA
For the molecule B1, the binding result is “binds”.
